Measurements from article PMC5464768, “ER retention is imposed by COPII protein sorting and attenuated by 4-phenylbutyrate” (eLife, 2017).

Tests used:
[1] = biological target: Sec24d (full-length, wild type) (H. sapiens) (UniProt O94855)
[2] = biological target: Sec24d (full-length, wild type) (H. sapiens) (UniProt O94855); remark: listed apart in the source

Sequence of Sec24d (full-length, wild type) (H. sapiens) (O94855 whole entry): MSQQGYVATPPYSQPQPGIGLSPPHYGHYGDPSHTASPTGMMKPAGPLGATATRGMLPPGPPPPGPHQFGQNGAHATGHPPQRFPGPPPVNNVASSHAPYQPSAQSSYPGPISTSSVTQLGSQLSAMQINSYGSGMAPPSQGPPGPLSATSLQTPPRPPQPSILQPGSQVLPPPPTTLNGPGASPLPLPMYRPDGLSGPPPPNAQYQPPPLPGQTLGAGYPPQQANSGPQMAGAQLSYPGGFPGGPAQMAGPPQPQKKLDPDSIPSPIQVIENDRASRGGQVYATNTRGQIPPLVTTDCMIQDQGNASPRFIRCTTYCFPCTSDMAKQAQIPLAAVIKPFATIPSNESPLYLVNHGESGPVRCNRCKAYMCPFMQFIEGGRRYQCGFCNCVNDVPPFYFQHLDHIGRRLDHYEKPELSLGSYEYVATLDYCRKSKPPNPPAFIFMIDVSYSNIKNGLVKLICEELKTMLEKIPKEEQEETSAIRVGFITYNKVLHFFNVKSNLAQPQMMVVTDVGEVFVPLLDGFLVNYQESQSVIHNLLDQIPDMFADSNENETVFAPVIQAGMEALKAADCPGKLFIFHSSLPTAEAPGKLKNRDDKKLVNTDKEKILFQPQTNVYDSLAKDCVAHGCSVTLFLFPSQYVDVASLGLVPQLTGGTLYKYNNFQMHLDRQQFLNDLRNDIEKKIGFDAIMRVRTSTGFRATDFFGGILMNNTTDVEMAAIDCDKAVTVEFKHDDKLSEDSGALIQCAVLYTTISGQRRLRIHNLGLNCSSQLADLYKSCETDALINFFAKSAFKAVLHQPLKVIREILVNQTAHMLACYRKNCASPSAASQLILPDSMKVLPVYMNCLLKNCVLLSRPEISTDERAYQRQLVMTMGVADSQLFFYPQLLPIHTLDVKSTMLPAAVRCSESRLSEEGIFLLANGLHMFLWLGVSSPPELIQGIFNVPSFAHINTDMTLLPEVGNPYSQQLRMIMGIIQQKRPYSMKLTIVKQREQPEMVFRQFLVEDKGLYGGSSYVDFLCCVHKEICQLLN
Sequence of p24β1 (P49020 16-196): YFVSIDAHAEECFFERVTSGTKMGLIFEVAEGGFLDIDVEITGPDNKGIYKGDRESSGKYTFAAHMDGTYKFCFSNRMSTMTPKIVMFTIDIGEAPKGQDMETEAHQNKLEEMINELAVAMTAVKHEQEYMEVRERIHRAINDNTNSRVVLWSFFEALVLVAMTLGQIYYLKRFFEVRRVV

Substance | reduction of the packaging rate into COPII vesicles (Sec23a/24d) budded in the presence of 10 mM 4-PBA [1] | packaging efficiency into COPII vesicles budded with wild-type COPII (Sec23a/24d), amount in vesicle as % of protein present in starting permeabilized cells; CHO-LDLR G544V cells [2] | packaging efficiency into COPII vesicles budded with wild-type COPII (Sec23a/24d), amount in vesicle as % of protein present in starting permeabilized cells; wild-type CHO cells [2]
ERGIC-53 (natural protein) | 50 % reduction | 4.5% | 
p24α2 (natural protein) |  | 8.7% | 10.9%
p24α3 (natural protein) | 50 % reduction | 6.4% | 6.4%
p24β1 (from UniProt P49020 16-196) (natural protein) | 50 % reduction | 10.6% | 
p24δ1 (natural protein) |  | 7.7% | 4.6%
